One block for each substance: values may come before it.
Key:
[1] = target: FRET-PGK1 (PGK1 labeled with mEGFP at the N-terminus and mCherry at the C-terminus) (yeast) (UniProt P00560)
[2] = target: mEGFP (free), expressed in U-2 OS cells; assay: FRET or BRET; in living U-2 OS cells co-transfected with both proteins; only cells with about 1:1 expression; epifluorescence microscope, infrared laser temperature ramp 19-46°C; average of 15-30 cells
[3] = target: ePGK3, expressed in U-2 OS cells (yeast) (UniProt P00560); assay: as above
[4] = target: ePGK2, expressed in U-2 OS cells (yeast) (UniProt P00560); assay: as above

- folding efficiency of GuHCl-denatured efPGK1 in stopped flow refolding (intramolecular FRET) with 100 μM Hsp70 and 22.5 μM Hsp40, 2 mM ATP; 47% without Hsp70 [1]: 57%
Substance: Hsp70 (as used in the stopped flow PGK refolding assay) (from UniProt P0DMV8 1-641) (natural protein)

- E FRET change [2]: 2%
Substance: mCherry (free), expressed in U-2 OS cells

- T0 (binding temperature midpoint) [3]: 37.1 °C
- overall E FRET change [3]: 8%
- T0 (binding temperature midpoint) [4]: 39.1 °C
- overall E FRET change [4]: 8%
Substance: mHsp70 (Hsp70 labeled by mCherry at the C-terminus), expressed in U-2 OS cells (from UniProt P0DMV8 1-641) (natural protein)

Reference: paper PMC6762143
